Positions count from the first letter of the chain named.
B1: 04H1207-G1m/04L1086-lam1 (antibody, human IgG1, lambda, V domains shown)
VH: EVQLVESGGGLVKPGGSLRLSCAASGFTFSSKTMNWVRQAPGKGLEWVSSISTRSGYIYYAESVKGRFTISRDNAKNSLYLQMNSLRAEDTAVYYCARYGKREDMLWVFDYWGQGTLVTVSS
VL: QSALTQPPSASGSPGQTVTISCDGPSTGVGDYNYVHWYQQHPGKAPKLMIYFTSKKPSGVPDRFSGSKSGNTASLTVSGLQAEDEADYFCQTYAAPLGPMFGGGTKLTVLG
notes: Human IgG1 constant region G1m (C-terminal Gly and Lys removed), human lambda chain lam1
B2: 04H1208-G1m/04L1086-lam1 (antibody, human IgG1, lambda, V domains shown)
VH: B1 VH with E62R
VL: B1 VL
B3: H240-Kn494/L73-k0//H240-Hl514/L73-k0 (antibody, human IgG1, kappa)
heavy 1: QDQLVQSGAEVKKPGASVKVSCKASGFNIKDTYIQWVRQAPGQGLEWMGRIDPLRKQTKYREKFEGRVTITADTSTNTAYMELSSLRSEDTAVYYCVRSGREFDYWGQGTLVTVSSASTKGPSVFPLAPSSKSTSGGTAALGCLVKDYFPEPVTVSWNSGALTSGVHTFPAVLQSSGLYSLSSVVTVPSSSLGTQTYICNVNHKPSNTKVDKKVEPKSCDKTHTCPPCPAPEFQWGPMVFLFPPKPKDVLMISRTPEVTCVVVDVSDEEPEVKFNWYVDGVEVHNAKTKPREEQYNATYRVVSVLPVLHQDWLNGKEYKCKVSNKALPAPEEKTISKAKGQPREPQVCTLPPSRDELTKNQVSLWCLVKGFYPSDIAVEWESNGQPENNYKTTPPVLDSDGSFFLYSKLTVDKSRWQQGNVFSCSVMHEALHNHYTQKSLSLSP
heavy 2: QDQLVQSGAEVKKPGASVKVSCKASGFNIKDTYIQWVRQAPGQGLEWMGRIDPLRKQTKYREKFEGRVTITADTSTNTAYMELSSLRSEDTAVYYCVRSGREFDYWGQGTLVTVSSASTKGPSVFPLAPSSKSTSGGTAALGCLVKDYFPEPVTVSWNSGALTSGVHTFPAVLQSSGLYSLSSVVTVPSSSLGTQTYICNVNHKPSNTKVDKKVEPKSCDKTHTCPPCPAPELLGGPSVFLFPPKPKDVLMISRTPEVTCVVVDVSHEEPEVKFNWYVDGVEVHNAKTKPREEQYNATYRVVSVLPVLHQDWLNGKEYKCKVSNDALPAPEEETISKAKGQPREPQVYTLPPSRCELTKNQVSLSCAVKGFYPSDIAVEWESNGQPENNYKTTPPVLDSDGSFFLVSKLTVDKSRWQQGNVFSCSVMHEALHNHYTQKSLSLSP
light: DIQMTQSPSSLSASVGDRVTITCRASQDIHKYIAWYQQKPGQAPRLLIQYTSTLQPGVPSRFSGSGSGTDYTFTISSLQPEDIATYYCLQYEQLRTFGGGTKVEIKRTVAAPSVFIFPPSDEQLKSGTASVVCLLNNFYPREAKVQWKVDNALQSGNSQESVTEQDSKDSTYSLSSTLTLSKADYEKHKVYACEVTHQGLSSPVTKSFNRGEC
notes: also called EGL-ART10; ART10
B4: H240-GASDALIE/L73-k0 (antibody, human IgG1, kappa)
heavy: QDQLVQSGAEVKKPGASVKVSCKASGFNIKDTYIQWVRQAPGQGLEWMGRIDPLRKQTKYREKFEGRVTITADTSTNTAYMELSSLRSEDTAVYYCVRSGREFDYWGQGTLVTVSSASTKGPSVFPLAPSSKSTSGGTAALGCLVKDYFPEPVTVSWNSGALTSGVHTFPAVLQSSGLYSLSSVVTVPSSSLGTQTYICNVNHKPSNTKVDKKVEPKSCDKTHTCPPCPAPELLAGPDVFLFPPKPKDTLMISRTPEVTCVVVDVSHEDPEVKFNWYVDGVEVHNAKTKPREEQYNSTYRVVSVLTVLHQDWLNGKEYKCKVSNKALPLPEEKTISKAKGQPREPQVYTLPPSRDELTKNQVSLTCLVKGFYPSDIAVEWESNGQPENNYKTTPPVLDSDGSFFLYSKLTVDKSRWQQGNVFSCSVMHEALHNHYTQKSLSLSP
light: B3 light

Assays:
human CTLA4 [1] = biological target: T1, human CTLA4 (human); test: SPR Biacore T200, 37C, antibody captured, ATP 1 uM; ATP 1 µM; binding amount
T1 construct: also called hCTLA4; hCTLA4-His-BAP
Experimental: (§1) Next, by interacting with a human CTLA4 solution prepared in a running buffer containing ATP to the desired concentration, or a human CTLA4 solution prepared in a running buffer containing no ATP, the binding ability of the antibody to human CTLA4 in the presence or absence of ATP was evaluated. Chips were regenerated with 25 mM NaOH and 10 mM Glycine-HCl (pH 1.5), and assay was performed by repeatedly capturing antibodies. The dissociation constant of each antibody for CTLA4 was calculated using Biacore T200 Evaluation Software 2.0. Specifically, the binding rate constant ka (L/mol/s) and the dissociation rate constant kd (1/s) were calculated by global fitting of the sensorgrams obtained by the measurement, using a 1:1 Langmuir binding model. The dissociation constant KD (mol/L) was calculated from those values. Alternatively, the dissociation constant KD (mol/L) was calculated by the steady state model. In addition, the binding amount of CTLA4 per unit amount of antibody was calculated by correcting the amount of CTLA4 bound as calculated from the sensorgram obtained by the assay with the amount of antibody captured onto the chip surface.
(§2) First, Sure Protein A (GE Healthcare) was immobilized onto a Series S Sensor Chip CM3 (GE Healthcare), and the antibodies were captured onto the chip by interacting an antibody solution prepared in the running buffer.

human CTLA4 [2] = biological target: T1, human CTLA4; test: SPR Biacore T200, 37C, antibody captured, ATP 100 uM; ATP 100 µM
Experimental: (§3) Biacore T200 was used to measure the binding of the generated antibodies to human CTLA4. 20 mM ACES (pH 7.4), 150 mM NaCl, 2 mM MgCl₂, 0.05% Tween 20 with ATP added to the desired concentration was used as the running buffer, and the assay was performed at 37° C. First, Protein G (CALBIOCHEM) was immobilized onto a Series S Sensor Chip CM3 (GE Healthcare), and the antibodies were captured by interacting an antibody solution prepared in an ATP-free running buffer with the chip. Next, by interacting with a human CTLA4 solution prepared in a running buffer containing ATP to the desired concentration, or a human CTLA4 solution prepared in a running buffer containing no ATP, the binding ability of the antibody to human CTLA4 in the presence or absence of ATP was evaluated. Chips were regenerated with 25 mM NaOH and 10 mM Glycine-HCl (pH 1.5), and assay was performed by repeatedly capturing antibodies. The dissociation constant of each antibody for CTLA4 was calculated using Biacore T200 Evaluation Software 2.0. Specifically, the binding rate constant ka (L/mol/s) and the dissociation rate constant kd (1/s) were calculated by global fitting of the sensorgrams obtained by the measurement, using a 1:1 Langmuir binding model. The dissociation constant KD (mol/L) was calculated from those values. Alternatively, the dissociation constant KD (mol/L) was calculated by the steady state model. In addition, the binding amount of CTLA4 per unit amount of antibody was calculated by correcting the amount of CTLA4 bound as calculated from the sensorgram obtained by the assay with the amount of antibody captured onto the chip surface.

human CTLA4 [3] = biological target: T1, human CTLA4; test: SPR Biacore T200, 37C, antibody captured, no ATP; no ATP; binding amount
Experimental: as §1, §2

human CTLA4 [4] = biological target: T1, human CTLA4; test: SPR Biacore T200, 37C, antibody captured, ATP 10 uM; ATP 10 µM; binding amount
Experimental: as §1, §2

human CTLA4 [5] = biological target: T1, human CTLA4; test: SPR Biacore T200, 37C, antibody captured, ATP 100 uM; ATP 100 µM; binding amount
Experimental: as §1, §2

human CTLA4 [6] = biological target: T1, human CTLA4; test: SPR Biacore T200, 37C, antibody captured, ATP 10 uM; ATP 10 µM
Experimental: as §3

[7] = biological target: T2, human FcγRIIIa F extracellular domain (human, UniProt P08637 17-208); test: SPR Biacore 8K+; KD for FcγRIIb divided by KD for this FcγR;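 note: antibodies captured on an anti-human Fab kappa SA chip with soluble human FcγR ectodomains flowed over, FcγRIIb KD from steady-state fit, other FcγR KD from Langmuir model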
T2 construct: extracellular domain; also called hFcγR IIIa F
Experimental: (§4) The interaction between the produced antibodies and human FcγRs was analyzed using Biacore 8K+ by the method below. For the running buffer, 50 mM Na-Phosphate, 150 mM NaCl, and 0.05% Tween20 (pH 7.4) was used, and measurement was performed at 25° C. The sensor chip used was a Series S SA chip (GE Healthcare) onto which CaptureSelect Human Fab-kappa Kinetics Biotin Conjugate (Thermo Fisher Scientific) was immobilized. An antibody of interest was captured onto this chip, and each FcγR diluted with the running buffer was allowed to interact with it. The chip was regenerated using 10 mM Glycine-HCl (pH 1.5), and repeatedly used to capture antibodies and perform measurement. The dissociation constants KD (mol/L) of each antibody for FcγRs were calculated using Biacore Insight Evaluation Software, with a steady state affinity model for the dissociation constant for FcγRIIb and a 1:1 Langmuir binding model for the dissociation constants for the other FcγRs (Table 48).

[8] = biological target: T3, human FcγRIIa R extracellular domain (human, UniProt P12318 34-217); test: as above
T3 construct: extracellular domain; also called hFcγR IIa R
T3 sequence (looked up): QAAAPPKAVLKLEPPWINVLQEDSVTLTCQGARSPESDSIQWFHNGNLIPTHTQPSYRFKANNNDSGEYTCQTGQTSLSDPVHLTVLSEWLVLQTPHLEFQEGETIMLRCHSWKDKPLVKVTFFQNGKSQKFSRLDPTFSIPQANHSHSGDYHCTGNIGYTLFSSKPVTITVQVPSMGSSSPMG
Experimental: as §4

[9] = biological target: T4, human FcγRIIIa V extracellular domain (human, UniProt P08637 17-208); test: as above
T4 construct: extracellular domain; also called hFcγR IIIa V
Experimental: as §4

[10] = biological target: T5, human FcγRIIa H extracellular domain (human, UniProt P12318 34-217); test: as above
T5 construct: extracellular domain; also called hFcγR IIa H
T5 sequence (looked up): T3 sequence (looked up) with R134H
Experimental: as §4

[11] = biological target: T6, human FcγRIIb extracellular domain (human, UniProt P31994 43-217); test: SPR Biacore 8K+, antibody captured, FcγR as analyte, steady state affinity model
T6 construct: extracellular domain; also called hFcγR IIb
T6 sequence (looked up): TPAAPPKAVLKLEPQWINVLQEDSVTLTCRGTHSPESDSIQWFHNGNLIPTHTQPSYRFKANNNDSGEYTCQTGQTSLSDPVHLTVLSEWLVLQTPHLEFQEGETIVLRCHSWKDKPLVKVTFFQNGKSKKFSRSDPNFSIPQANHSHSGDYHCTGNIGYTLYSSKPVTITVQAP
Experimental: as §4

[12] = biological target: T7, hFcγRIIaH on hFcγRIIaH-expressing Jurkat cells (human, UniProt P12318 34-317); test: cell-based or functional assay
T7 sequence (looked up): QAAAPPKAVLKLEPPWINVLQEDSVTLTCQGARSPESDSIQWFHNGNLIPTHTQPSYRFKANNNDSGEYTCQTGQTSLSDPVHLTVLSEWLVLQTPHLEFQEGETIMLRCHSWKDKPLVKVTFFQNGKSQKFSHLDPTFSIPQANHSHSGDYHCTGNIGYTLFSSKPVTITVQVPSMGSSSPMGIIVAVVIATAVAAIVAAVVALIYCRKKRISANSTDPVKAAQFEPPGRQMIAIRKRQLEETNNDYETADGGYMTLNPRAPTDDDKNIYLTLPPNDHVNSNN

[13] = biological target: T8, human FcγRIa extracellular domain (human, UniProt P12314 16-292); test: SPR Biacore 8K+, antibody captured, FcγR as analyte, 1:1 Langmuir model;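 note: antibodies captured on a streptavidin chip through a biotinylated anti-human Fab kappa reagent, with FcγR extracellular domains injected in pH 7.4 phosphate buffer at 25 °C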
T8 construct: extracellular domain; also called hFcγR Ia; hFcγRIa

[14] = biological target: T2, human FcγRIIIa F extracellular domain; test: as above
[15] = biological target: T3, human FcγRIIa R extracellular domain; test: as above
[16] = biological target: T4, human FcγRIIIa V extracellular domain; test: as above
[17] = biological target: T5, human FcγRIIa H extracellular domain; test: as above
[18] = biological target: hFcγRIIIaV on hFcγRIIIaV-expressing Jurkat cells (human, UniProt P08637 17-254); test: cell-based or functional assay
[19] = biological target: T8, human FcγRIa extracellular domain; test: SPR Biacore 8K+; KD of G1d divided by KD of this antibody;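 note: antibodies captured on an anti-Fab-kappa streptavidin chip, soluble FcγR ectodomains flowed over, KD by steady-state fit for FcγRIIb and Langmuir kinetic model for the other receptors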
[20] = biological target: T2, human FcγRIIIa F extracellular domain; test: as above
[21] = biological target: T3, human FcγRIIa R extracellular domain; test: as above
[22] = biological target: T4, human FcγRIIIa V extracellular domain; test: as above
[23] = biological target: T5, human FcγRIIa H extracellular domain; test: as above
[24] = biological target: T6, human FcγRIIb extracellular domain; test: as above
[25] = biological target: T9, human C1q protein (Calbiochem) (human, UniProt P02745 23-245; P02746 28-253; P02747 29-245); test: ELISA: antibody coated on the plate at the varied concentration, hC1q 3 µg/mL added, detected with HRP-conjugated anti-hC1q antibody, O.D (450-690nm)
T9 construct: bought; also called hC1q
T9 sequence (P02745 23-245 limits assumed, chain 1 of 3): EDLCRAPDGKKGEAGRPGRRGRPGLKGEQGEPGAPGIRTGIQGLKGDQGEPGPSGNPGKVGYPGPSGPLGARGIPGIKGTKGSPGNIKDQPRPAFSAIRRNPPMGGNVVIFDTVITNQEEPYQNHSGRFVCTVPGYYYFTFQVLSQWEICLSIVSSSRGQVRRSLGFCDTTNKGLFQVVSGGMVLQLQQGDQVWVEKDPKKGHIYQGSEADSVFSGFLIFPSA
T9 sequence (P02746 28-253 limits assumed, chain 2 of 3): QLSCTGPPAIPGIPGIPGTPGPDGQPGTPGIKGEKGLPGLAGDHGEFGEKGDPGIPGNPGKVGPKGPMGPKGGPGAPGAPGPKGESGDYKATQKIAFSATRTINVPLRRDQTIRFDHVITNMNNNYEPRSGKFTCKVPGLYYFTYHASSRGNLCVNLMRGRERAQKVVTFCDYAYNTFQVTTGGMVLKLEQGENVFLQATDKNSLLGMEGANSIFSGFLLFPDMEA
T9 sequence (P02747 29-245 limits assumed, chain 3 of 3): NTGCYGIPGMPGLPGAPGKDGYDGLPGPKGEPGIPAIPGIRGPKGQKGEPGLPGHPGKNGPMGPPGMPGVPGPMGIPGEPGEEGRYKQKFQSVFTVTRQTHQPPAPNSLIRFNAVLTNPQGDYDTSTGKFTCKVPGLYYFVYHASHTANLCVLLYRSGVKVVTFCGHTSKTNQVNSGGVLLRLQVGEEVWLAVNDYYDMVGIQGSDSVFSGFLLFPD
Experimental: The antigen used was a human C1q protein (hC1q).
First, a 96-well maxisorp plate (Thermo fisher) was coated at 4° C. overnight with 50 μL of solutions containing each antibody prepared at 30, 10, 3, 1, 0.3, 0.1, and 0.03 μg/mL in PBS. Each well of the plate was washed with Wash buffer to remove the antibody not bound to the plate, and then the wells were blocked with 200 μL of Blocking/dilution Buffer at room temperature for 2 hours or longer. After the Blocking/dilution Buffer was removed from each well, hC1q (Calbiochem) prepared such that the final concentration was 3 μg/mL in Blocking/dilution Buffer was added at 50 μL per well. The plate was then allowed to stand at room temperature for 1 hour to allow hC1q to bind to the antibody within each well. After washing with Wash Buffer, 50 μL of an HRP-conjugated anti-hC1q antibody (AbDSerotec) diluted with Blocking/dilution Buffer was added to each well, and the plate was incubated while standing for 1 hour. After washing with Wash Buffer, TMB single solution (Invitrogen) was added. The color development reaction of the solution in each well was stopped by addition of Stop Buffer, and then the developed color was measured by absorbance at 450 nm and 690 nm.

T8 sequence (P12314 16-292): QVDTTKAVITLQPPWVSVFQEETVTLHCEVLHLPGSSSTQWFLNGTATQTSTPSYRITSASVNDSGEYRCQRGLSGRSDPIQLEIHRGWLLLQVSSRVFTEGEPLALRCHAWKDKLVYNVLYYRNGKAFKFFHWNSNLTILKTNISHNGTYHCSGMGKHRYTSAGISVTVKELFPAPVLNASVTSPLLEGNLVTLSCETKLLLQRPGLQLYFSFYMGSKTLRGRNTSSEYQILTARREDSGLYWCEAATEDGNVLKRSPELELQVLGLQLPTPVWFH
T4 sequence (P08637 17-208 F176V limits assumed): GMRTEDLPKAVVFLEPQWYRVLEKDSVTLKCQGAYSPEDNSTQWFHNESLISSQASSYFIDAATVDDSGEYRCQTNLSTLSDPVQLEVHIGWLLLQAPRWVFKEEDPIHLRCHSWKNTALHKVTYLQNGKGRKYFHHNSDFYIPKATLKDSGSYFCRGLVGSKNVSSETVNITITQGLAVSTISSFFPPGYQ
T2 sequence (P08637 17-208): as the sequence (P08637 17-208 F176V limits assumed) above, with V160F counted along it
T1 sequence (chain, as listed by the source limits assumed): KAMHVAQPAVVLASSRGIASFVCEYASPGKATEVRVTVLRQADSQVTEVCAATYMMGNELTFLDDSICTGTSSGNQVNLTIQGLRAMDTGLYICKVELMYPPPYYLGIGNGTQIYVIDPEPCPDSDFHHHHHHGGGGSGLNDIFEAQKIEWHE
Chain of hFcγRIIIaV on hFcγRIIIaV-expressing Jurkat cells (P08637 17-254, form in doubt): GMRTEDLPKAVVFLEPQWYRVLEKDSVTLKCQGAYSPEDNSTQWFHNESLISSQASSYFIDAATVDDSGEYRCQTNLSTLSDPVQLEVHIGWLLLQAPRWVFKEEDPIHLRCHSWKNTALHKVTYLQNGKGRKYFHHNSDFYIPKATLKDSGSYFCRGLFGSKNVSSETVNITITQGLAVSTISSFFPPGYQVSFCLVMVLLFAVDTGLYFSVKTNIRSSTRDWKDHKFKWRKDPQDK

Row | Binder | Binding to Human CTLA4 (binding amount per unit amount of antibody) (human CTLA4 [1]) | Kd (human CTLA4 [2]) | Binding to Human CTLA4 (binding amount per unit amount of antibody) (human CTLA4 [3]) | Binding to Human CTLA4 (binding amount per unit amount of antibody) (human CTLA4 [4]) | Binding to Human CTLA4 (binding amount per unit amount of antibody) (human CTLA4 [5]) | Kd (human CTLA4 [6]) | A/I ratio (KD for FcγRIIb divided by KD for each FcγR) [7] | A/I ratio (KD for FcγRIIb divided by KD for each FcγR) [8] | A/I ratio (KD for FcγRIIb divided by KD for each FcγR) [9] | A/I ratio (KD for FcγRIIb divided by KD for each FcγR) [10] | Kd [11] | EC50 value (hFcγRIIaH ADCP Reporter Bioassay, Hepa1-6/hEREG target cells) [12] | Kd [13] | Kd [14] | Kd [15] | Kd [16] | Kd [17] | EC50 value (hFcγRIIIaV ADCC Reporter Bioassay, Hepa1-6/hEREG target cells) [18] | Relative value to KD between G1d and hFcgRs [19] | Relative value to KD between G1d and hFcgRs [20] | further results
1 | B1 | 0.037 | 76 nM | 0.01 | 0.111 | 0.166 | 400 nM | – | – | – | – | – | – | – | – | – | – | – | – | – | – | –
2 | B2 | 0.022 | 91 nM | 0.003 | 0.084 | 0.139 | 510 nM | – | – | – | – | – | – | – | – | – | – | – | – | – | – | –
3 | B3 | – | – | – | – | – | – | 3160 | 6.6 | 11400 | 17.3 | 7250 nM | 0.0419 µg/mL | 0.0267 nM | 2.29 nM | 1100 nM | 0.634 nM | 420 nM | 0.000107 µg/mL | 3.4 | 1290 | Relative value to KD between G1d and hFcgRs [21]: 1.5; Relative value to KD between G1d and hFcgRs [22]: 566; Relative value to KD between G1d and hFcgRs [23]: 2.7; Relative value to KD between G1d and hFcgRs [24]: 1.4; binding result [25]: binds
4 | B4 | – | – | – | – | – | – | 89.3 | 16.5 | 176 | 16.5 | 2670 nM | 0.0324 µg/mL | 0.00423 nM | 29.8 nM | 161 nM | 15.2 nM | 162 nM | 0.00208 µg/mL | 21.3 | 99.1 | Relative value to KD between G1d and hFcgRs [21]: 10.3; Relative value to KD between G1d and hFcgRs [22]: 23.6; Relative value to KD between G1d and hFcgRs [23]: 6.9; Relative value to KD between G1d and hFcgRs [24]: 3.8; binding result [25]: no binding (tested: 30 µg/mL)
